The labels stand for the following.
B1: Double-stranded RNA-specific adenosine deaminase (Homo sapiens), P55265-1 (parent)
chain: MNPRQGYSLSGYYTHPFQGYEHRQLRYQQPGPGSSPSSFLLKQIEFLKGQLPEAPVIGKQTPSLPPSLPGLRPRFPVLLASSTRGRQVDIRGVPRGVHLRSQGLQRGFQHPSPRGRSLPQRGVDCLSSHFQELSIYQDQEQRILKFLEELGEGKATTAHDLSGKLGTPKKEINRVLYSLAKKGKLQKEAGTPPLWKIAVSTQAWNQHSGVVRPDGHSQGAPNSDPSLEPEDRNSTSVSEDLLEPFIAVSAQAWNQHSGVVRPDSHSQGSPNSDPGLEPEDSNSTSALEDPLEFLDMAEIKEKICDYLFNVSDSSALNLAKNIGLTKARDINAVLIDMERQGDVYRQGTTPPIWHLTDKKRERMQIKRNTNSVPETAPAAIPETKRNAEFLTCNIPTSNASNNMVTTEKVENGQEPVIKLENRQEARPEPARLKPPVHYNGPSKAGYVDFENGQWATDDIPDDLNSIRAAPGEFRAIMEMPSFYSHGLPRCSPYKKLTECQLKNPISGLLEYAQFASQTCEFNMIEQSGPPHEPRFKFQVVINGREFPPAEAGSKKVAKQDAAMKAMTILLEEAKAKDSGKSEESSHYSTEKESEKTAESQTPTPSATSFFSGKSPVTTLLECMHKLGNSCEFRLLSKEGPAHEPKFQYCVAVGAQTFPSVSAPSKKVAKQMAAEEAMKALHGEATNSMASDNQPEGMISESLDNLESMMPNKVRKIGELVRYLNTNPVGGLLEYARSHGFAAEFKLVDQSGPPHEPKFVYQAKVGGRWFPAVCAHSKKQGKQEAADAALRVLIGENEKAERMGFTEVTPVTGASLRRTMLLLSRSPEAQPKTLPLTGSTFHDQIAMLSHRCFNTLTNSFQPSLLGRKILAAIIMKKDSEDMGVVVSLGTGNRCVKGDSLSLKGETVNDCHAEIISRRGFIRFLYSELMKYNSQTAKDSIFEPAKGGEKLQIKKTVSFHLYISTAPCGDGALFDKSCSDRAMESTESRHYPVFENPKQGKLRTKVENGEGTIPVESSDIVPTWDGIRLGERLRTMSCSDKILRWNVLGLQGALLTHFLQPIYLKSVTLGYLFSQGHLTRAICCRVTRDGSAFEDGLRHPFIVNHPKVGRVSIYDSKRQSGKTKETSVNWCLADGYDLEILDGTRGTVDGPRNELSRVSKKNIFLLFKKLCSFRYRRDLLRLSYGEAKKAARDYETAKNYFKKGLKDMGYGNWISKPQEEKNFYLCPV
partner: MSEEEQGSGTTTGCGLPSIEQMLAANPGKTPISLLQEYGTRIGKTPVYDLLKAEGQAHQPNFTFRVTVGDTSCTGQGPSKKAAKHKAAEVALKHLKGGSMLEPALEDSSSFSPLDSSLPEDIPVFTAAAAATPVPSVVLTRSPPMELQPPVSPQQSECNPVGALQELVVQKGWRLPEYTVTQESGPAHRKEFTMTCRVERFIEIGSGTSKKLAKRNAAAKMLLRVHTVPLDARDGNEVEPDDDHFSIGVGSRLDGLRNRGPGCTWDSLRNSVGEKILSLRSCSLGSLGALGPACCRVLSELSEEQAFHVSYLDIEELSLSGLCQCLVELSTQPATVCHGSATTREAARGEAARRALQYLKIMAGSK

The assay covers variants of B1. To be noted: with trbp2_human TARBP2, Q15633.
Regarding K554E;K555A;K558A;K665E;K666A;K669A;K777E;K778A;K781A, the “effect of a mutation on the interaction” value is listed as “disrupting interaction strength”.

Values taken from IntAct's records for PubMed 23622242.
